The supplement of paper PMC12764529
± gives the half width of the 95% confidence interval.

Assay: folding stability dG unfold (combined trypsin and chymotrypsin); higher = more stable
Outline: (§1)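 Designed mini-proteins with no cysteine and under 80 residues were kept only if AlphaFold2 dimer inter-PAE was above 15. In a PA-tagged cDNA display construct, they were digested with trypsin and chymotrypsin and then sequenced. K50 was inferred by Bayesian fitting of counts, and unfolding free energy was derived per protease or combined against a sequence-predicted unfolded-state K50 and a shared folded-state K50.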

| Sequence | folding stability dG unfold |
| --- | --- |
| SAGGSAGGSAGLEVPPGVPVKIPVVYVDKENDYVIVTELTITPDSGEIFYDPKIIPKKELSAGGSAGGSAGG [r11_468_TrMRF] | 0.65 ± 0.099 kcal/mol |
| SAGGSAGGSAGGLLEELKAKGYTVLSTPVPSPPDGVPTRTVLAKKGEGTVTFVVPAALLSAGGSAGGSAGGS [r10_35_JUSTAS] | 0.287 ± 0.23 kcal/mol |
| SAGGSAGGSAMVRIEFENGLVAEFPSDLPLEEVKEKAVELAKLLSNDKKPVKVKILDIKEEGSAGGSAGGSA [r18_213_TrMRF] | 0.407 ± 0.17 kcal/mol |
| SAGGSAGGSAGIVIPLDGRPIVIDMYPNGYMRIEVEPPNGKKKTRTFPGAPIEDILKAIKSAGGSAGGSAGG [r11_934_TrROS] | -0.204 ± 0.28 kcal/mol |
| SAGGSAGGSAGGMREIAREIWEEYNNPVTIRIRNPNGKHEPFRFPDDPEDIPGWDIDDITSAGGSAGGSAGG [r7_998_TrROS] | 0.463 ± 0.082 kcal/mol |
| EEIIEKLKEEGYEIVSVSIKEVNGKKKIFIAVRRKDKPEYLLVEIDLENKEVKIKKVKKFPKGESIEDILSS [r1_383_TrROS_Hall] | 3.56 ± 0.27 kcal/mol |
| SAGGSAGGSAGGMKIPPSLLTEVKESIVPTPEGSTKITTVTAKVPGTGEVVTYTLTTPVASAGGSAGGSAGG [r7_348_JUSTAS] | -0.242 ± 0.11 kcal/mol |
| SMMYLVKIKVRNKETGELVEEIELVVESEEEAEKIAEELAEELGLEVEVEVKRISPEELEDPEILKELLESA [r9_864_TrROS_Hall] | 3.27 ± 0.23 kcal/mol |
| SAMKVTVKPTTLPDGTTVVVTTEPDKIVAYGTYNGDSFTSESLPDGTVVTTAKKPGGVLVTSPTDPNLESAG [r14_213_JUSTAS] | 0.265 ± 0.074 kcal/mol |
| SAGGSAGGSMKTYTLPNGLRVQLVRVDKKTKTITLKVFDKNGELVEEIEIKVDEPVELLVVYPSAGGSAGGS [r12_960_TrROS_Hall] | 2.45 ± 0.15 kcal/mol |
| SAGGSAGGSAKITIELDGITEVEFDEETGELYLRIEVDGKLYEIRITEDGTIEIREVPLEDSAGGSAGGSAG [r3_62_TrROS_Hall] | 3.13 ± 0.17 kcal/mol |

Assay: folding stability dG unfold from chymotrypsin proteolysis; higher = more stable
Outline: as §1

| Sequence | folding stability dG unfold |
| --- | --- |
| SAGGSAGGSASITLTLGDTPLEVSTDPSTNTYTFTYPAPGLVLTLDVSTGKLSARPLAELASAGGSAGGSAG [r3_137_JUSTAS] | 1.69 ± 0.071 kcal/mol |
| SAGGMIVTTIPGSPAIKVEIPFPETPFSATITIPIAPDGTVTADLKPHPDMSEELIEKIKELAKELLKSAGG [r13_139_JUSTAS] | 0.829 ± 0.037 kcal/mol |
| SALSASELAKRVRDRIKELSNEEGYNVDIKVDVQPNEDGSVTVHIQFDSPWMIKRIKEKLPPGVNVEIMSAG [r14_491_TrROS] | 2.421 ± 0.021 kcal/mol |
| SAGGSAGGPVITFPWNDIPELLERARENGDPEYYIRVSPDDPGNFTIMPPEEAEENGMPVIPLDSAGGSAGG [r6_710_TrROS] | -0.656 ± 0.46 kcal/mol |
| SAGGSGSSMSVSVSVTTSPVSVDPNKPVPIEVATTTTPVSSYDPVTGTSSTTTTTTTVPLGNPEAASAGGSA [r2_489_JUSTAS] | 1.42 ± 0.044 kcal/mol |
| SAGGSMVIRVETPEEAEEAARELAERLRELFPEVKELEIKVKVEVVDEETGEEKEYEFTIKLKLPPSAGGSA [r2_393_TrROS_Hall] | 2.62 ± 0.098 kcal/mol |
| SAGGPEVEAERFGDTVLVRITLLDPETGEPYEFLAIATRRPDGTVTVTIIHPDGRPSTIPLPLLPLASAGGS [r16_154_TrMRF] | 1.88 ± 0.039 kcal/mol |
| SAGGSAGGSAMTVSIPPEVITSVEYDPSTNKVTITPSDGSVKTYDVESPEEVFKANNIGPESAGGSAGGSAG [r3_34_JUSTAS] | 0.648 ± 0.11 kcal/mol |
| SAGGSAGGSAGGSPVRVKLKFKKKFTVLLPLTDEDDEILDVEKEYTVEITLEVTLPPDLSAGGSAGGSAGGS [r4_326_TrMRF] | 4.34 ± 0.2 kcal/mol |
| SAGGSAGGSAGSVIVTSTTSTLPNGTVVTNETVSDPSNPGVTTKKTSTTYPDGSVTTTESSAGGSAGGSAGG [r11_483_JUSTAS] | 1.73 ± 0.047 kcal/mol |
| SAGMIEILELPPNKAIVKIYDPKTGKFEIIEIDFGGKDGKPLSLEELIEKIKKLAKELYPDLEINVTPLSAG [r5_293_TrMRF] | 1.98 ± 0.063 kcal/mol |
| SAGGMKPGESSTVPPVVERTTSPDSLGNPRYTVTRVTEITVTYFPDSINVTVTTETTVVSTATPGLLSAGGS [r8_70_JUSTAS] | 1.15 ± 0.031 kcal/mol |
| SAGGSEPEPLRVSEITDIKESVLPNGTLKATVTLKLPEKDEEVEIEVEASSEEEIEEAIEEIVKLESAGGSA [r2_248_JUSTAS] | 0.0425 ± 0.35 kcal/mol |
| SAGGKTKEIELEILFEPVKVKKKKKNKNGKEEEVEEKEFKPVLVRITLKIENGKITEIKIEVEKLDDLSAGG [r13_935_TrROS_Hall] | 3.37 ± 0.11 kcal/mol |
| SAGGKEIKIEVELDEDGNLTVTITLPDGRVVRITFTPGKITVEVFDAETGELVEEKTLTADELLELLSAGGS [r8_476_TrROS_Hall] | 3.81 ± 0.13 kcal/mol |
| SAGGSAGGSAGMKTITKKVKSEEEAKKLAEELKKKGYKVEVEVKKDPKTGNYIVTITIELPESAGGSAGGSA [r18_455_JUSTAS] | 3.89 ± 0.19 kcal/mol |
| KKTYTAEEIRKLAEKLGLEVPEGDLEIKVVFKDNKKTYTIKPGEEYTLEEILEKLKKEKPNIVKIEIKKKPS [r1_135_TrROS_Hall] | 2.31 ± 0.034 kcal/mol |
| SAGGSAGGSAGGMITTGITVSATDPNSSTSYTVTVPSSVPSSTFPANTAVGSAALAKLLASAGGSAGGSAGG [r17_412_JUSTAS] | -0.225 ± 0.25 kcal/mol |
| SLSPALEGPEALAALAAADPVPPLPVLTVKNSTGDPEKALEEVLKEHPELKPELIVEVEVGEGTLTITVLSA [r9_723_JUSTAS] | 0.573 ± 0.095 kcal/mol |
| PKYVIKAVNPKVGEVKTIEVDDDPEKAIEALKALKKADPDIKFYISGVKSDELIEAAKEAGLEDLNFTEVES [r1_114_TrMRF] | 4.02 ± 0.27 kcal/mol |
| SAGGSVEKKLLEYDPATGNRLVEVTAKAKPEVVEELIAKGYDPSTISPLGDGTVRALLTIPPDEKLDSAGGS [r16_755_JUSTAS] | -0.332 ± 0.25 kcal/mol |
